Results taken from paper PMC9860117, “The nematode α-catenin ortholog, HMP1, has an extended α-helix when bound to actin filaments” (The Journal of Biological Chemistry, 2022).

B1: HMP1/α-catenin F-actin binding domain (FABD, residues 677-927) (domain or fragment, C. elegans, UniProt P90947 677-927, looked up)
chain: NLMRRLPEEEKKKIQAQIDIFKVTQTRFEREVAKWDETGNDIISLANNMCKIMMSMTEFTRGCGPLKTTMDVIRAAQEISLNGSKLNALARQIGEESADSQTKKDLLAYLSQITLYCQQLNICSKVKADVTQVGNELVVSALDSAMSLIQTARNLLTAVVQTVKAAYIASTKFRRPNANSVRVEWRMAPPKKQPLIRPQKNNAIIRRASERRPLQPAKVLAEFTRNEIETGRDSDDEELDRRHQQRINGRL
notes: Cloned into pGEX-6P-1 with a PreScission site by DNA Custom Cloning; also called HMP1/α-catenin FABD; FABD of HMP1/α-catenin; source: E. coli BL21(DE3), purified as described for full-length HMP1/α-catenin; not shown: GST, N-terminal, cleaved
B2: full-length human α-catenin (residues 1-906) (natural protein, UniProt P35221 1-906, looked up)
chain: MTAVHAGNINFKWDPKSLEIRTLAVERLLEPLVTQVTTLVNTNSKGPSNKKRGRSKKAHVLAASVEQATENFLEKGDKIAKESQFLKEELVAAVEDVRKQGDLMKAAAGEFADDPCSSVKRGNMVRAARALLSAVTRLLILADMADVYKLLVQLKVVEDGILKLRNAGNEQDLGIQYKALKPEVDKLNIMAAKRQQELKDVGHRDQMAAARGILQKNVPILYTASQACLQHPDVAAYKANRDLIYKQLQQAVTGISNAAQATASDDASQHQGGGGGELAYALNNFDKQIIVDPLSFSEERFRPSLEERLESIISGAALMADSSCTRDDRRERIVAECNAVRQALQDLLSEYMGNAGRKERSDALNSAIDKMTKKTRDLRRQLRKAVMDHVSDSFLETNVPLLVLIEAAKNGNEKEVKEYAQVFREHANKLIEVANLACSISNNEEGVKLVRMSASQLEALCPQVINAALALAAKPQSKLAQENMDLFKEQWEKQVRVLTDAVDDITSIDDFLAVSENHILEDVNKCVIALQEKDVDGLDRTAGAIRGRAARVIHVVTSEMDNYEPGVYTEKVLEATKLLSNTVMPRFTEQVEAAVEALSSDPAQPMDENEFIDASRLVYDGIRDIRKAVLMIRTPEELDDSDFETEDFDVRSRTSVQTEDDQLIAGQSARAIMAQLPQEQKAKIAEQVASFQEEKSKLDAEVSKWDDSGNDIIVLAKQMCMIMMEMTDFTRGKGPLKNTSDVISAAKKIAEAGSRMDKLGRTIADHCPDSACKQDLLAYLQRIALYCHQLNICSKVKAEVQNLGGELVVSGVDSAMSLIQAAKNLMNAVVQTVKASYVASTKYQKSQGMASLNLPAVSWKMKAPEKKPLVKREKQDETQTKIKRASQKKHVNPVQALSEFKAMDSI
notes: cDNA from Open Biosystems; One construct that was isolated as a monomer pool and as a dimer pool; the dimer pool holds two copies of the chain; also called full-length monomeric human α-catenin; full-length dimeric human α-catenin; source: E. coli BL21(DE3), purified similar to HMP1/α-catenin; monomer and dimer SEC peaks pooled separately and run again on Superdex S200; not shown: GST, …

Key:
[1] = target: the molecule itself; assay: cryo-EM structure; F-actin (0.7 uM) put on the grid first, then 0.6 mg/ml (21 uM) HMP1/α-catenin FABD added and removed repeatedly; helical reconstruction at 3.36 Å
[2] = target: the molecule itself; assay: SEC; Superdex S200 10/300 Gl, 20 mM Tris pH 8, 150 mM NaCl, 0.2 mM TCEP; monomer and dimer peaks pooled separately and each run a second time

Protein | binding result [1] | stoichiometry N [2]
B1 | binds | 
B2 |  | 2
